Measurements taken from the supplement of paper PMC7877785.
± gives the uncertainty stated by the source.

Assay: self-splicing fitness, log relative to wild type (ln ratio); higher = more splicing; Tetrahymena group I intron in knt gene, E. coli kanamycin selection, DiMSum; sequences stand for … in CUCUCU…GGAGGGAAAAGUUAUCAGGCAUGCACCUGGUAGCUAGUCUUUAAACCAAUAGAUUGCAUCGGUUUAAAAGGCAAGACCGUCAAAUUGCGGGAAAGGGGUCAACAGCCGUUCAGUACCAAGUCUCAGGGGAAACUUUGAGAUGGCCUUGCAAAGGGUAUGGUAAUAAGCUGACGGACAUGGUCCUAACCACGCAGCCAAGUCCUAAGUCAACAGAUCUUCUGUUGAUAUGGAUGCAGUUCACAGACUAAAUGUCGGUCGGGGAAGAUGUAUUCUUCUCAUAAGAUAUAGUCGGACCUCUCCUUAAUGGGAGCUAGCGGAUGAAGUGAUGCAACACUGGAGCCGCUGGGAACUAAUUUGUAUGCGAAAGUAUAUUGAUUAGUUUUGGAGUACUCGUGGUCG
Summary of the method: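 DiMSum derived fitness as the error-weighted combination of fold changes across replicates, kanamycin versus no kanamycin, normalised to wild type. E. coli BL21(DE3) held the library, which randomised all eight P1ex-region intron nucleotides within the knt kanamycin-resistance gene on pET-22b(+). Six replicate transformations grew overnight at 37°C or 30°C on LB agar with or without 25 μg/mL kanamycin, also containing 100 μg/mL carbenicillin, 50 μM IPTG and 0.2% rhamnose, and pooled colonies were amplicon-sequenced on an Illumina HiSeq 2500.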

GCGUAGCAAUAUUACGGGCC
self-splicing fitness (ln) (30 °C): -3.1 ± 0.32

GCGUAGCAAUAUUACGGGGC
self-splicing fitness (ln) (30 °C): -3.47 ± 0.21 | self-splicing fitness (ln) (37 °C): -2.67 ± 0.24

GCGUAGCAAUAUUACGGGGG
self-splicing fitness (ln) (30 °C): -3.87 ± 0.21 | self-splicing fitness (ln) (37 °C): -1.78 ± 0.17

GCGUAGCAAUAUUACGGGUG
self-splicing fitness (ln) (30 °C): -1.55 ± 0.08 | self-splicing fitness (ln) (37 °C): -1.46 ± 0.091

GCGUAGCAAUAUUACGGUAA
self-splicing fitness (ln) (30 °C): -1.02 ± 0.13 | self-splicing fitness (ln) (37 °C): -0.178 ± 0.1

GCGUAGCAAUAUUACGUAAA
self-splicing fitness (ln) (30 °C): -0.977 ± 0.21 | self-splicing fitness (ln) (37 °C): -1.1 ± 0.25

GCGUAGCAAUAUUACGUACG
self-splicing fitness (ln) (30 °C): -3.93 ± 0.18 | self-splicing fitness (ln) (37 °C): -2.88 ± 0.17

GCGUAGCAAUAUUACGUCUC
self-splicing fitness (ln) (37 °C): -2.6 ± 0.39

GCGUAGCAAUAUUACGUGUG
self-splicing fitness (ln) (30 °C): -4.47 ± 0.42 | self-splicing fitness (ln) (37 °C): -2.77 ± 0.2

GCGUAGCAAUAUUACGUGUU
self-splicing fitness (ln) (30 °C): -3.07 ± 0.21 | self-splicing fitness (ln) (37 °C): -0.761 ± 0.12

GCGUAGCAAUAUUACGUUAG
self-splicing fitness (ln) (30 °C): -3.92 ± 0.22 | self-splicing fitness (ln) (37 °C): -2.47 ± 0.23

GCGUAGCAAUAUUACGUUCG
self-splicing fitness (ln) (30 °C): -1.48 ± 0.33 | self-splicing fitness (ln) (37 °C): -1.52 ± 0.32

GCUAAGCAAUAUUACGAACA
self-splicing fitness (ln) (30 °C): -1.65 ± 0.2 | self-splicing fitness (ln) (37 °C): -0.907 ± 0.27

GCUAAGCAAUAUUACGAAUA
self-splicing fitness (ln) (30 °C): -2.16 ± 0.21 | self-splicing fitness (ln) (37 °C): -1.73 ± 0.24

GCUAAGCAAUAUUACGACCA
self-splicing fitness (ln) (30 °C): -2.09 ± 0.21 | self-splicing fitness (ln) (37 °C): -1.34 ± 0.26

GCUAAGCAAUAUUACGAGAA
self-splicing fitness (ln) (30 °C): -0.77 ± 0.47 | self-splicing fitness (ln) (37 °C): -1.64 ± 0.31

GCUAAGCAAUAUUACGAGAC
self-splicing fitness (ln) (30 °C): -2.13 ± 0.13 | self-splicing fitness (ln) (37 °C): -0.763 ± 0.14

GCUAAGCAAUAUUACGAUUA
self-splicing fitness (ln) (30 °C): -1.63 ± 0.22 | self-splicing fitness (ln) (37 °C): -0.39 ± 0.18

GCUAAGCAAUAUUACGCACC
self-splicing fitness (ln) (30 °C): -0.869 ± 0.11 | self-splicing fitness (ln) (37 °C): 0.0219 ± 0.14

GCUAAGCAAUAUUACGCAGG
self-splicing fitness (ln) (30 °C): -2.8 ± 0.26 | self-splicing fitness (ln) (37 °C): -3.55 ± 0.39

GCUAAGCAAUAUUACGCAGU
self-splicing fitness (ln) (30 °C): -3.5 ± 0.24 | self-splicing fitness (ln) (37 °C): -2.88 ± 0.31

GCUAAGCAAUAUUACGCAUG
self-splicing fitness (ln) (30 °C): -2.51 ± 0.16 | self-splicing fitness (ln) (37 °C): -2.09 ± 0.15

GCUAAGCAAUAUUACGCCAU
self-splicing fitness (ln) (30 °C): -2.71 ± 0.2 | self-splicing fitness (ln) (37 °C): -3.21 ± 0.27

GCUAAGCAAUAUUACGCCCC
self-splicing fitness (ln) (30 °C): -1.74 ± 0.28 | self-splicing fitness (ln) (37 °C): -0.52 ± 0.21

GCUAAGCAAUAUUACGCCGU
self-splicing fitness (ln) (30 °C): -3.45 ± 0.3 | self-splicing fitness (ln) (37 °C): -0.927 ± 0.31

GCUAAGCAAUAUUACGCGAA
self-splicing fitness (ln) (30 °C): -2.87 ± 0.13 | self-splicing fitness (ln) (37 °C): -1.1 ± 0.14

GCUAAGCAAUAUUACGCGAC
self-splicing fitness (ln) (30 °C): -2.11 ± 0.14 | self-splicing fitness (ln) (37 °C): -1.54 ± 0.17

GCUAAGCAAUAUUACGCGUA
self-splicing fitness (ln) (30 °C): -1.26 ± 0.12 | self-splicing fitness (ln) (37 °C): -0.718 ± 0.14

GCUAAGCAAUAUUACGGAAA
self-splicing fitness (ln) (30 °C): -1.48 ± 0.2 | self-splicing fitness (ln) (37 °C): -2.28 ± 0.24

GCUAAGCAAUAUUACGGAAG
self-splicing fitness (ln) (30 °C): -1.5 ± 0.071 | self-splicing fitness (ln) (37 °C): -0.648 ± 0.088

GCUAAGCAAUAUUACGGACA
self-splicing fitness (ln) (30 °C): -1.35 ± 0.12 | self-splicing fitness (ln) (37 °C): -1.17 ± 0.12

GCUAAGCAAUAUUACGGCCU
self-splicing fitness (ln) (30 °C): -1.89 ± 0.095 | self-splicing fitness (ln) (37 °C): -0.893 ± 0.11

GCUAAGCAAUAUUACGGUAA
self-splicing fitness (ln) (30 °C): -1.65 ± 0.17 | self-splicing fitness (ln) (37 °C): -1.04 ± 0.16

GCUAAGCAAUAUUACGUAUA
self-splicing fitness (ln) (30 °C): -1.76 ± 0.12 | self-splicing fitness (ln) (37 °C): -0.55 ± 0.13

GCUAAGCAAUAUUACGUCAA
self-splicing fitness (ln) (30 °C): -1.5 ± 0.26 | self-splicing fitness (ln) (37 °C): -1.76 ± 0.32

GCUAAGCAAUAUUACGUCUA
self-splicing fitness (ln) (30 °C): -0.793 ± 0.095 | self-splicing fitness (ln) (37 °C): -0.911 ± 0.12

GCUAAGCAAUAUUACGUGAC
self-splicing fitness (ln) (30 °C): -2.24 ± 0.2 | self-splicing fitness (ln) (37 °C): -0.851 ± 0.21

GCUAAGCAAUAUUACGUGGG
self-splicing fitness (ln) (30 °C): -2.99 ± 0.14 | self-splicing fitness (ln) (37 °C): -1.61 ± 0.13

GCUCAGCAAUAUUACGAACG
self-splicing fitness (ln) (30 °C): -0.679 ± 0.15 | self-splicing fitness (ln) (37 °C): -0.216 ± 0.17

GCUCAGCAAUAUUACGAAUC
self-splicing fitness (ln) (30 °C): -0.406 ± 0.081 | self-splicing fitness (ln) (37 °C): -0.385 ± 0.082

GCUCAGCAAUAUUACGACAC
self-splicing fitness (ln) (30 °C): -0.687 ± 0.098 | self-splicing fitness (ln) (37 °C): 0.564 ± 0.15

GCUCAGCAAUAUUACGACCG
self-splicing fitness (ln) (30 °C): -1.52 ± 0.17 | self-splicing fitness (ln) (37 °C): -0.109 ± 0.17

GCUCAGCAAUAUUACGAGAU
self-splicing fitness (ln) (30 °C): -1.4 ± 0.077 | self-splicing fitness (ln) (37 °C): -0.431 ± 0.078

GCUCAGCAAUAUUACGAGGC
self-splicing fitness (ln) (30 °C): -4.34 ± 0.42 | self-splicing fitness (ln) (37 °C): -1.42 ± 0.19

GCUCAGCAAUAUUACGAUAG
self-splicing fitness (ln) (30 °C): -1.95 ± 0.11 | self-splicing fitness (ln) (37 °C): -1.26 ± 0.096

GCUCAGCAAUAUUACGAUCC
self-splicing fitness (ln) (30 °C): -0.823 ± 0.076 | self-splicing fitness (ln) (37 °C): -0.215 ± 0.1

GCUCAGCAAUAUUACGAUUU
self-splicing fitness (ln) (30 °C): -0.259 ± 0.056 | self-splicing fitness (ln) (37 °C): 0.00309 ± 0.075

GCUCAGCAAUAUUACGCAAA
self-splicing fitness (ln) (30 °C): -1.15 ± 0.18 | self-splicing fitness (ln) (37 °C): -0.688 ± 0.14
